Article doi:10.1101/2024.08.25.607996 (2024)
Several values for one entry are separate records, joined by “and”; a condition that tells them apart may be missing. Equal values may be shown once.

B1: feline APN-Fc ectodomain (dimeric) (Fc fusion)
chain: DQSKPWNVYRLPKTLIPDSYNVTLRPYLTPNNKGLYVFTGTNIVRFTCKESTNIVIIHSKRLNYTSHQGHMVALSGVGGFHPQPVIVRTELVELTEYLVVHLQEPLVAGRQYEMNSEFQGELADDLAGFYRSEYMENGVKKVLATTHMQATEARKSFPCFDEPAMKATFNITIIHPNNLVALSNMLPRGPSVPFGEDPTWKVTEFETTPIMSTYLLAYIVSEFSYVETRAPSGVLIRIWARPSAINQGHGDYALKVTGPILDFFSQHYDTPYPLNKSDQIALPDFNAGAMENWGLVTYRESALLYDRQSSSSGNQERVVTVIAHELAHQWFGNLVTLEWWNDLWLNEGFASYVEYLGADFAEPTWNLKDLMVLNDVYRVMAVDALASSHPLSTPASEINTPAQISEVFDSISYSKGASVLRMLSNFLTEDLFKMGIASYLHTYKYGNTIYLNLWEHLQQVVDKQPTIKLPDTVSAIMDRWILQMGFPVITVDTQTGTISQQHFLLDPQSVVTRPSQFNYLWIVPISSVRSGSPQAHYWLPGVEKAQNDLFKTTANDWVLLNLNVTGYYLVNYDNENWKKIQTQLQTDLSVIPVINRAQVIHDAFNLASAQKVPVTLALNNTLFLIQETEYMPWQAALSSLSYFKLMFDRSEVYGPMKRYLKKQVTPLFNHFERVTKNWTDHPQTLMDQYSEINAVSTACSYGVPECEKLAATLFAQWKKNPQNNPIHPNLRSTVYCNAIAQGGEEEWNFVWEQFLKAELVNEADKLRGALACSNQVWILNRFLSYTLDPNLIRKQDVTSTLSSISSNVVGQTLVWDFVQSNWKKLFQDYGTGSFSFSNLIQAVTRRFSTEFELQQLEQFKKNNMDTGFGSATRALEQALEKTKANLKWVKENKDVVLRWFTENS
B2: canine APN-Fc ectodomain (dimeric) (Fc fusion)
chain: LAQSKPWNHYRLPKTLIPSSYNVTLRPYLTPNSNGLYTFKGSSTVRFTCKESTSMIIIHSKKLNYTNIQGQRVALRGVGGSQAPAIDRTELVEVTEYLVVHLREPLQVNSQYEMDSKFEGELADDLAGFYRSEYTENGVKKVLATTQMQAADARKSFPCFDEPAMKATFNITLIHPSNLVALSNMLPRGPSVPFTEEPNWNVTEFETTPIMSTYLLAYIVSEFKNVQENTPSNVLIRIWARPSAMDQGHGNYALRVTGPILDFFSRHYDTPYPLNKSDQIALPDFNAGAMENWGLVTYRESALLYDPQSSSIGNKERVVTVIAHELAHQWFGNLVTLEWWNDLWLNEGFASYVEYLGADYAEPTWNLKDLIVLNEVYRVMAVDALASSHPLSSPASEVNTPAQISEVFDSISYSKGASVLRMLSSFLTEDLFKKGVASYLHTFAYQNTIYLDLWNHLQWALGNQTAINLPYTVNAIMDRWILQMGFPVVTVDTTTGTLSQKHFLLDPQSNVTRPSKFNYLWIIPISSVKSGTQQAHYWMPDNAKVQNDLFKTTGDEWVLLNLNVTGYYLVNYDQNNWKKIHTQLQTDLSVIPVINRAQVIHDTFDLASAQIVPVTLALNSTLFLNQETEYMPWEAALSSLSYFKLMFDRSEVYGPMKNYLRKQVTPLFNHFEKITQNWTDHPQTLTEQYNEINAVSTACTYGVPKCKDLVSTLFAEWRKNPQNNPIYPNLRSTVYCNAIAQGGEEEWNFVWEQFRNTSLVNEADKLRSALACSTQVWILNRYLSYTLNPEFIRKQDVISTLSSIASNVIGQSLAWDFIQSNWKKLFEDYGTGSFSFSNLIQAVTRRFSTEFELQQLEQFKANNMDTGFGSGTRALEQALEKTKANIKWVKENKEAVLQWFRENSQ

Assays:
[1] = target: T1, CCoV-HuPn-2018 S domain B (receptor-binding domain), residues 523-671, avi- and His-tagged (CCoV-HuPn-2018 (canine coronavirus)); assay: BLI
T1 chain: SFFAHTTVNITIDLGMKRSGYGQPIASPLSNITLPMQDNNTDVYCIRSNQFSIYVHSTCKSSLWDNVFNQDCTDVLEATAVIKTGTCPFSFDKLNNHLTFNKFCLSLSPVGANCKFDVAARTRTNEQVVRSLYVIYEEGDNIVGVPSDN

[2] = target: FCoV-23 S domain B (receptor-binding domain), residues 529-677, avi- and His-tagged (FCoV-23 (feline coronavirus)); assay: BLI

Binder | Kd [1] | Kd [2] | koff [2]
B1 | 28 nM | 10 nM | 0.0013 s⁻¹ and 0.0014 s⁻¹
B2 | 2.6 nM | 1.2 nM | 0.00019 s⁻¹ and 0.00018 s⁻¹
